Data as given in PMC2853374 (2010).

Experiments:
OmpR (Escherichia coli) = OmpR (Escherichia coli) (UniProt P0AA16); assay: FRET; settings: cited from earlier work
[1] = target: OmpR~P (Escherichia coli) (UniProt P0AA16); assay: FRET; settings: cited from earlier work
OmpR = target: T1, OmpR (Escherichia coli, UniProt P0AA16); assay: fluorescence anisotropy
T1 chain: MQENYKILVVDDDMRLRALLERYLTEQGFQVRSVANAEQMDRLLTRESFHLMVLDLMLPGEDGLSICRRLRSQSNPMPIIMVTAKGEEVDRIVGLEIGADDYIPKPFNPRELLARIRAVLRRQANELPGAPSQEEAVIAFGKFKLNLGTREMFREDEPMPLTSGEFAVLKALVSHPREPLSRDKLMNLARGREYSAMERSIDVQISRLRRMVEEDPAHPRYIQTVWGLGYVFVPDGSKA

EnvZ-GFP, sequence (P0AEJ4 whole entry): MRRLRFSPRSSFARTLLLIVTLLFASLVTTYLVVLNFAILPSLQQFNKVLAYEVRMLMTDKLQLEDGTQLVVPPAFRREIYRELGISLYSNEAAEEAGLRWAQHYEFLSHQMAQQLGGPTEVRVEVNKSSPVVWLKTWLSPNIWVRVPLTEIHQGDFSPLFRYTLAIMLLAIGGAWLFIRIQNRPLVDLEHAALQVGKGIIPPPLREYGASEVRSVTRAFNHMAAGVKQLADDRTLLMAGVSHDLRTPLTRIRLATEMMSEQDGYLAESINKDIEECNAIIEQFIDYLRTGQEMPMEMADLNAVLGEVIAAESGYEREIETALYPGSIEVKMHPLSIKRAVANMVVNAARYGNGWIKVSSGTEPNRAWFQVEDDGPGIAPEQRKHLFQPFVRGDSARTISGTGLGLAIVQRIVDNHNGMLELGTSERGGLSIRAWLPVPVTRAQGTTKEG

Row | Molecule | Kd (OmpR (Escherichia coli)) [nM] | Kd [1] [nM] | Kd (OmpR) [nM]
1 | EnvZ-GFP (from UniProt P0AEJ4) | 500 | 1600 | 
2 | EnvZc cytoplasmic domain (protein) FNHMAAGVKQLADDRTLLMAGVSHDLRTPLTRIRLATEMMSEQDGYLAESINKDIEECNAIIEQFIDYLRTGQ |  |  | 425
3 | EnvZc cytoplasmic domain (protein, ompC DNA (C1-C2-C3)) FNHMAAGVKQLADDRTLLMAGVSHDLRTPLTRIRLATEMMSEQDGYLAESINKDIEECNAIIEQFIDYLRTGQ |  |  | 385
